Results reported in patent publication US20090149339A1 (published 2009).
Ends that are not written are not given here. * marks the point of attachment. Biotin = O=C1N[C@H]2[C@H](CS[C@H]2CCCCC(=O)*)N1

What was measured:
Assay in all cases: A/G assays
[1] = target: T1, GST-KIAA0303 PDZ domain fusion protein (KIAA0303 AA652-742; PDZ domain 1 of 1) (UniProt P08515 1-218 = GST)
T1 construct: also called K303

[2] = target: GST-PSD95 PDZ domain fusion protein (human post-synaptic density protein 95 AA387-724; PDZ domains 1-3 of 3) (human, UniProt P08515 1-218 = GST)
[3] = target: T2, GST-TAX33 PDZ domain fusion protein (tax interaction protein 33 AA73-162; PDZ domain 1 of 1) (UniProt P08515 1-218 = GST)
T2 construct: also called TX33

[4] = target: GST-DVL1 PDZ domain fusion protein (human dishevelled segment polarity protein homolog AA248-340); PDZ domain … (human, UniProt P08515 1-218 = GST)
[5] = target: T3, GST-KIAA0559 PDZ domain fusion protein (KIAA0559 AA766-870; PDZ1 of 1) (UniProt P08515 1-218 = GST)
T3 construct: also called K559

[6] = target: GST-prIL16 PDZ domain fusion protein (putative interleukin 16 precursor AA170-383; PDZ domains 1-2 of 2) (UniProt P08515 1-218 = GST)
[7] = target: GST-NOS1 PDZ domain fusion protein (human neuronal nitric oxide synthase; PDZ domain 1 of 1) (human, UniProt P08515 1-218 = GST)
[8] = target: T4, GST-41.8 kD PDZ domain fusion protein (hypothetical 41.8 kD protein AA4-85; PDZ domain 1 of 1) (UniProt P08515 1-218 = GST)
T4 construct: also called hypoth

[9] = target: T5, GST-TAX43 PDZ domain fusion protein (human tax interaction protein 43 AA15-85; PDZ domain 1 of 1) (human, UniProt P08515 1-218 = GST)
T5 construct: also called TX 43

[10] = target: T6, GST-CASK PDZ domain fusion protein (CASK AA495-584; PDZ domain 1 of 1) (mouse, UniProt P08515 1-218 = GST)
T6 construct: also called mCASK

[11] = target: GST-AF6 PDZ domain fusion protein (af-6 protein AA985-1077; PDZ domain 1 of 1) (UniProt P08515 1-218 = GST)
[12] = target: T7, GST-TAX40 PDZ domain fusion protein (human tax interaction protein 40 AA35-137; PDZ domain 1 of 1) (human, UniProt P08515 1-218 = GST)
T7 construct: also called TX 40

[13] = target: T8, GST-MPP2 PDZ domain fusion protein (maguk p55 subfamily member 2 (DLG2) AA185-273; PDZ domain 1 of 1) (UniProt P08515 1-218 = GST)
T8 construct: also called MMP2

[14] = target: T9, GST-RGS12 PDZ domain fusion protein (human regulator of G-protein signalling 12 AA35-103; PDZ domain 1 of 1) (human, UniProt P08515 1-218 = GST)
T9 construct: also called RSG12

[15] = target: GST-TIAM1 PDZ domain fusion protein (T-lymphoma invasion and metastasis inducing protein 1 AA1001-1088); PDZ 1 … (UniProt P08515 1-218 = GST)
[16] = target: GST-LIMK2 PDZ domain fusion protein (human LIM domain kinase 2 AA185-275; PDZ domain 1 of 1) (human, UniProt P08515 1-218 = GST)
[17] = target: T10, GST-KIAA0316 PDZ domain fusion protein (KIAA0316 AA197-284; PDZ domain 1 of 1) (UniProt P08515 1-218 = GST)
T10 construct: also called K316

[18] = target: T11, GST-SYN1a PDZ domain fusion protein (alpha1-syntrophin AA96-189; PDZ domain 1 of 1) (UniProt P08515 1-218 = GST)
T11 construct: also called SYN 1 alpha; SYNTR 1 alpha

[19] = target: GST-MINT3 PDZ domain fusion protein (human MINT3 AA11-52; PDZ domain 1 of 1) (human, UniProt P08515 1-218 = GST)
[20] = target: T12, GST-TAX2 PDZ domain fusion protein (human tax interaction protein 2 AA54-140; PDZ domain 1 of 1) (human, UniProt P08515 1-218 = GST)
T12 construct: also called TX 2

[21] = target: GST-MPP1 PDZ domain fusion protein (55 Kd erythrocyte membrane protein AA101-186; PDZ domain 1 of 1) (UniProt P08515 1-218 = GST)
[22] = target: T13, GST-CBP PDZ domain fusion protein (Cytohesin binding protein HE AA85-175; PDZ domain 1 of 1) (UniProt P08515 1-218 = GST)
T13 construct: also called Prot

[23] = target: GST-PTN-4 PDZ domain fusion protein (protein-tyrosine phosphatase meg1 AA774-862; PDZ domain 1 of 1) (UniProt P08515 1-218 = GST)
[24] = target: T14, GST-NeDLG PDZ domain fusion protein (presynaptic protein sao102, neuroendocrine-dlg; PDZ domains 1-2 of 3) (UniProt P08515 1-218 = GST)
T14 construct: also called NeDLG1

[25] = target: GST-LIM PDZ domain fusion protein (Human LIM protein AA29-112; PDZ domain 1 of 1) (human, UniProt P08515 1-218 = GST)

Measured: binding result

Chain of GST-AF6 PDZ domain fusion protein (af-6 protein AA985-1077; PDZ domain 1 of 1) (P08515 1-218, tags or fused parts left off): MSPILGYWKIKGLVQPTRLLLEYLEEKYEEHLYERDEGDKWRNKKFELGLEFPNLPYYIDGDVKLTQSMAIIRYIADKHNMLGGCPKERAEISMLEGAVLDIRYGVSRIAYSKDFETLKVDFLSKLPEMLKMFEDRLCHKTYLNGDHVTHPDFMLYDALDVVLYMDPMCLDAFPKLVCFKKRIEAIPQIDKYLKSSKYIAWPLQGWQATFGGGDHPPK
T6 sequence (P08515 1-218, tags or fused parts left off): as above
T13 sequence (P08515 1-218, tags or fused parts left off): as above
T2 sequence (P08515 1-218, tags or fused parts left off): as above
T3 sequence (P08515 1-218, tags or fused parts left off): as above
Chain of GST-MPP1 PDZ domain fusion protein (55 Kd erythrocyte membrane protein AA101-186; PDZ domain 1 of 1) (P08515 1-218, tags or fused parts left off): as above
T10 sequence (P08515 1-218, tags or fused parts left off): as above
T12 sequence (P08515 1-218, tags or fused parts left off): as above
Chain of GST-MINT3 PDZ domain fusion protein (human MINT3 AA11-52; PDZ domain 1 of 1) (P08515 1-218, tags or fused parts left off): as above
T14 sequence (P08515 1-218, tags or fused parts left off): as above
Chain of GST-LIM PDZ domain fusion protein (Human LIM protein AA29-112; PDZ domain 1 of 1) (P08515 1-218, tags or fused parts left off): as above
T9 sequence (P08515 1-218, tags or fused parts left off): as above
Chain of GST-DVL1 PDZ domain fusion protein (human dishevelled segment polarity protein homolog AA248-340); PDZ domain … (P08515 1-218, tags or fused parts left off): as above
T8 sequence (P08515 1-218, tags or fused parts left off): as above
T1 sequence (P08515 1-218, tags or fused parts left off): as above
T4 sequence (P08515 1-218, tags or fused parts left off): as above
T7 sequence (P08515 1-218, tags or fused parts left off): as above
Chain of GST-NOS1 PDZ domain fusion protein (human neuronal nitric oxide synthase; PDZ domain 1 of 1) (P08515 1-218, tags or fused parts left off): as above
Chain of GST-PSD95 PDZ domain fusion protein (human post-synaptic density protein 95 AA387-724; PDZ domains 1-3 of 3) (P08515 1-218, tags or fused parts left off): as above
Chain of GST-prIL16 PDZ domain fusion protein (putative interleukin 16 precursor AA170-383; PDZ domains 1-2 of 2) (P08515 1-218, tags or fused parts left off): as above
Chain of GST-LIMK2 PDZ domain fusion protein (human LIM domain kinase 2 AA185-275; PDZ domain 1 of 1) (P08515 1-218, tags or fused parts left off): as above

Biotin-DTPSSSYTQSTMDHDLHDAL [CC CKR-4 C-terminal PL peptide AA44L, biotinylated]
no binding: all assays above

Biotin-AWDDSARAAGGQGLHVTAL [LPAP C-terminal PL peptide AA30L, biotinylated]
no binding: all assays above

Biotin-SMQPDNSSDSDYDLHGAQRL [CD5 C-terminal PL peptide AA49L, biotinylated]
no binding: all assays above

B1: FceRIb C-terminal PL peptide AA25L, biotinylated (peptide)
peptide: Biotin-YSATYSELEDPGEMSPPIDL
notes: also called Fc epsilon receptor beta I chain
no binding: all assays above
